Literature values as cited in article PMC4775371.

Target: H1.0 (UniProt P07305)
UniProt P07305, sequence (P07305 2-194): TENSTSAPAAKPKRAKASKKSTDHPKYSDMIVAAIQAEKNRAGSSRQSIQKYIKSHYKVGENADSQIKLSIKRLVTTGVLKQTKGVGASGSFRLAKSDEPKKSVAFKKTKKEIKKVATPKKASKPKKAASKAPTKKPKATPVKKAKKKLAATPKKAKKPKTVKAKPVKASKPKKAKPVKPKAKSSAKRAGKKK

Kd: 32 nM
Substance: FACT (from UniProt Q9Y5B9)
